Laboratory results: article PMC3299411 (Molecular Cell, 2011)

Key:
Assay in all cases: cross-linking
[1] = target: H3 (Drosophila (endogenous in S2 cells)) (UniProt P02299)
[2] = target: T1, endogenous CID (Drosophila (endogenous in S2 cells)), Q9V6Q2; conditions: remark: other sources report otherwise
T1 chain: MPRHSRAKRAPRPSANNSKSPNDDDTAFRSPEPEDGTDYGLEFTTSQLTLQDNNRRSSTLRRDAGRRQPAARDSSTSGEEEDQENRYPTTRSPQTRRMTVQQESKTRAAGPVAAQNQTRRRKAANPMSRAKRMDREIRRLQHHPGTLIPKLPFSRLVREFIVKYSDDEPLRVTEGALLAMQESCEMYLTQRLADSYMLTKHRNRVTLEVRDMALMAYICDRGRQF

[3] = target: the molecule itself
[4] = target: T2, FLAG-CID (N-terminally FLAG-tagged CID, wild type) (Drosophila), Q9V6Q2; conditions: remark: other sources report otherwise
T2 chain: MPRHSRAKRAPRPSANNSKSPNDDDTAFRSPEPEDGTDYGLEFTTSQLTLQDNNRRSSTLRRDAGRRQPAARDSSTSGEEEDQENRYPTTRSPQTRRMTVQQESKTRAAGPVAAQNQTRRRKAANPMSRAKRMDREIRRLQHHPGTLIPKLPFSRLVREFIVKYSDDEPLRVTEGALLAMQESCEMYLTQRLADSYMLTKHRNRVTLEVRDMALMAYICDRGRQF

H3 (from UniProt P02299 1-136) (natural protein)
stoichiometry N [1]: 2

B1: endogenous CID, Q9V6Q2 1-225 (natural protein)
chain: MPRHSRAKRAPRPSANNSKSPNDDDTAFRSPEPEDGTDYGLEFTTSQLTLQDNNRRSSTLRRDAGRRQPAARDSSTSGEEEDQENRYPTTRSPQTRRMTVQQESKTRAAGPVAAQNQTRRRKAANPMSRAKRMDREIRRLQHHPGTLIPKLPFSRLVREFIVKYSDDEPLRVTEGALLAMQESCEMYLTQRLADSYMLTKHRNRVTLEVRDMALMAYICDRGRQF
stoichiometry N [2]: 2

B2: FLAG-CID^D211A (natural protein, Drosophila, UniProt Q9V6Q2 1-225, looked up)
chain: MPRHSRAKRAPRPSANNSKSPNDDDTAFRSPEPEDGTDYGLEFTTSQLTLQDNNRRSSTLRRDAGRRQPAARDSSTSGEEEDQENRYPTTRSPQTRRMTVQQESKTRAAGPVAAQNQTRRRKAANPMSRAKRMDREIRRLQHHPGTLIPKLPFSRLVREFIVKYSDDEPLRVTEGALLAMQESCEMYLTQRLADSYMLTKHRNRVTLEVRAMALMAYICDRGRQF
ratio dimer:monomer after crosslinking [3]: < 3

B3: FLAG-CID (N-terminally FLAG-tagged CID, wild type), Q9V6Q2 1-225 (natural protein)
chain: MPRHSRAKRAPRPSANNSKSPNDDDTAFRSPEPEDGTDYGLEFTTSQLTLQDNNRRSSTLRRDAGRRQPAARDSSTSGEEEDQENRYPTTRSPQTRRMTVQQESKTRAAGPVAAQNQTRRRKAANPMSRAKRMDREIRRLQHHPGTLIPKLPFSRLVREFIVKYSDDEPLRVTEGALLAMQESCEMYLTQRLADSYMLTKHRNRVTLEVRDMALMAYICDRGRQF
ratio dimer:monomer after crosslinking [4]: > 55
stoichiometry N [4]: 2
